{"source": "patent US20230131339A1", "about": "“EPI-X4 BASED PEPTIDES AND DERIVATIVES THEREOF” (Universitaet Ulm, priority 2020, published 2023)", "test": "Small animal SPECT/CT and PET/CT imaging (total body distribution)", "type": "in vivo, Balb/c mice", "details": "^68Ga-labeled, tail vein, 1 h p.i.", "procedure": "SPECT/CT: The total body distribution of [^177Lu]Lu-Pentixather was compared to [^177Lu]Lu-DOTA-K-JM #173 and [^177Lu]Lu-DOTA-K-JM #235. Healthy Balb/c mice were injected into the tail vein with 15-20 MBq ([…]) of ^177Lu-labeled complexes and SPECT/CT images was acquired 4 h post injection (p.i.). For acquiring the images, mice were euthanized by CO2 inhalation after 4 hours, measured in a suitable dose calibrator and imaged supine, head first, using a SPECT/CT system dedicated to imaging small animals (NanoSPECT/CTTM Bioscan Inc.). The images were reconstructed using proprietary HiSPECT iterative reconstruction and fused with CT images using proprietary InVivoScope (Bioscan) software.\nPET/CT: PET/CT imaging was performed to determine and compare the total body distribution of [^68Ga]Ga-Pentixather with [^68Ga]Ga-DOTA-K-JM #173. Healthy Balb/c mice were injected into the tail vein with 5-6 MBq ([…]) of ^68Ga-labeled complexes and PET/CT images were acquired 1 h p.i. For acquiring the images, mice were euthanized by CO2 inhalation after 1 h, measured in a suitable dose calibrator and imaged supine, head first, using a PET/CT system dedicated to imaging small animals (Molecubes). The images were reconstructed using the Molecubes software and fused with CT images using Vivo Quant. […]", "note": "Where a SMILES comes first, the peptide text is derived from it. [ ]: non-standard residue; d: D form. The star is where a group is joined. DOTA = O=C(O)CN1CCN(CC(=O)O)CCN(CC(=O)*)CCN(CC(=O)O)CC1"}
{"compound": "CC[C@@H](C)[C@@H](N)C(=O)N[C@@H](CC(C)C)C(=O)N[C@@H](CCCNC(=N)N)C(=O)N[C@@H](Cc1c[nH]c2ccccc12)C(=O)N[C@@H](CO)C(=O)N[C@@H](CCCNC(=N)N)C(=O)N[C@@H](CCCCN)C(=O)N[C@@H](CCCCNC(=O)CN1CCN(CC(=O)O)CCN(CC(=O)O)CCN(CC(=O)O)CC1)C(N)=O", "note": "[[^68Ga]Ga-DOTA-K-JM#173] [metal not drawn] (H-[dI]LRWSRKK(DOTA)-NH2)", "values": [{"measurement": "total body distribution, PET/CT", "value": "no specific uptake in any organ in vivo"}]}
